Positions of bridges follow the written chain, without caps; N, C: chain ends. Non-standard residues stand in square brackets, D forms with d. Residues, ends and D or L forms follow the SMILES beside them. S5 = C=CCCC[C@](C)(N)C(=O)O; Abu = CC[C@H](N)C(=O)O; Aib = CC(C)(N)C(=O)O
Key:
circular dichroism = conditions: 5 mM sodium phosphate; pH 7.0; ns °C; 0.5 or 2 mg/mL
eIF4E = biological target: T1, eIF4E (Homo sapiens, UniProt P06730); assay: eIF4E affinity (SPR/FP, method not named); type: binding
T1 construct: made in house
T1 sequence (P06730 whole entry): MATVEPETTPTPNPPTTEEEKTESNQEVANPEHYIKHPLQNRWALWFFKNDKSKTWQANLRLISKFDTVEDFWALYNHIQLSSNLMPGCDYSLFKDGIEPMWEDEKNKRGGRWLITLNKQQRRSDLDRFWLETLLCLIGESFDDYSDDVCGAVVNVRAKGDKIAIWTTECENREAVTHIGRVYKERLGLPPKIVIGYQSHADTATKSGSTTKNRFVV
Description: (§1) Apparent Kd values were determined for a variety of molecules via competitive anisotropy anisotropy experiments. Titrations were carried out with the concentrations eIF4E held constant at 200 nM, respectively and the labeled peptide at 50 nM. The competing molecules were then titrated against complex of the FAM labeled peptide and protein. Apparent Kd values were determined by fitting the experimental data to the equations shown below: […]
(§2) Six buffer blanks were first injected to equilibrate the instrument fully and then a solvent correction curve was performed followed by a further two blank injections. […] Using a flow rate of 50 μl/min, compounds were injected for 60 s and dissociation was monitored for 180 s. The data collection rate was 10 Hz. Kds were determined using the BiaEvaluation software (Biacore) and calculated kinetically from the dissociation and association phase data for each of the peptides. The kinetic data were fitted to 1:1 binding models. Each individual peptide Kd was determined from three separate titrations. Within each titration at least two concentration points were duplicated to ensure stability and robustness of the chip surface.

[1] = Circular dichroism, percent α-helicity in solution; type: physicochemical; conditions: CD, 5 mM sodium phosphate buffer pH 7.0
Description: CD was measured on a JASCO J-810 spectropolarimeter, and spectra were either recorded with a quartz cuvette (Helmer) with a pathlength of 0.01 cm or 0.1 cm in 5 mM sodium phosphate buffer (pH 7.0). FUV CD spectra were recorded from 260 nm to 200 nm at a peptide concentration of either 2 mg/ml or 0.5 mg/ml, respectively. The CD signal was converted into mean residue ellipticity in units of degree·cm^2·dmol^−1·residue^−1. CD spectra were recorded at a data pitch of 0.2 nm at 50 nm min^−1, a response time of 2 s, and a bandwidth of […]. Once converted to mean residue ellipticity, percent α-helicity can be calculated with equation (1) and (2): […]

[2] = biological target: T2, human eukaryotic translation initiation factor 4E (eIF4E), full-length (human, UniProt P06730 2-217); assay: SPR, Biacore T100, eIF4E immobilised on CM5, peptide as analyte, kinetic 1:1 fit
T2 construct: mature; For SPR it was amine-coupled to a CM5 chip with m7GTP present in a 2:1 ratio. 'mature' is used here for full length; also called full length eIF4E
T2 sequence (P06730 2-217): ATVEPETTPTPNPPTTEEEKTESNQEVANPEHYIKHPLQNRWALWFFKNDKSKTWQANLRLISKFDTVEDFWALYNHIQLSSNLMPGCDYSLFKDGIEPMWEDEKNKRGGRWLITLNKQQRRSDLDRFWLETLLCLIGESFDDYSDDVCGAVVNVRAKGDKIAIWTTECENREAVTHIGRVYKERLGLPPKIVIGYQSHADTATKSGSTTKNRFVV
Description: For stock peptide solutions, the compounds were dissolved in 100% DMSO to a concentration of 10 mM; further dilutions of the peptide stock solutions into DMSO and/or running buffer were performed immediately prior to analysis. Running buffer consisted of 10 mM Hepes pH 7.6, 0.15M NaCl, 1 mM DTT and 0.1% Tween20. Stock/DMSO diluted peptide solutions were diluted into 1.03× running buffer to make a peptide solution with 3% DMSO final concentration. […] Surface Plasmon resonance experiments were performed on a Biacore T100 machine.
eIF4E was immobilized on a CM5 sensor chip. The CM5 chip was conditioned with a 6 s injection of 100 mM HCL, followed by a 6 s injection of 0.1% SDS and completed with a 6 s injection of 50 mM NaOH at a flow rate of 100 μl/min. […] Purified eIF4E was diluted with 10 mM sodium acetate buffer (pH 5.0) to a final concentration of 0.5 μM with m⁷ GTP present in a 2:1 ratio in order to stabilize eIF4E. The amount of eIF4E immobilized on the activated surface was controlled by altering the contact time of the protein solution and was approximately 1000 RU. After the immobilization of the protein, a 7-min injection (at 10 μl min⁻¹) of 1 M ethanolamine (pH 8.5) was used to quench excess active succinimide ester groups.
as §2, with “titrations.” for “titrations. Within each titration at least two concentration points were duplicated to ensure stability and robustness of the chip surface.”

[3] = biological target: T2, human eukaryotic translation initiation …; assay: competitive fluorescence anisotropy (FP), displacement of FAM tracer from eIF4E, apparent Kd
Description: as §1, with “The competing molecules were then titrated against complex of the FAM labeled peptide and protein.” left out

CC(=O)N[C@@H](CCCCN)C(=O)N[C@@H](CCCCN)C(=O)N[C@@H](CCCNC(=N)N)C(=O)N[C@@H](Cc1ccc(O)cc1)C(=O)N[C@@H](CO)C(=O)N[C@@H](CCCNC(=N)N)C(=O)NC(C)(C)C(=O)N[C@@H](Cc1ccccc1)C(=O)N[C@@H](CC(C)C)C(=O)N[C@@H](CC(C)C)C(=O)NC(C)(C)C(N)=O (Ac-KKRYSR[Aib]FLL[Aib]-NH2)
helicity (circular dichroism): 7%

CC(=O)N[C@@H](CCCCN)C(=O)N[C@@H](CCCCN)C(=O)N[C@@H](CCCNC(=N)N)C(=O)N[C@@H](Cc1ccc(O)cc1)C(=O)N[C@@H](CO)C(=O)N[C@@H](CCCNC(=N)N)C(=O)NC(C)(C)C(=O)N[C@@H](Cc1ccccc1)C(=O)N[C@@H](CC(C)C)C(=O)N[C@@H](CC(C)C)C(=O)NC(C)(C)C(=O)N[C@@H](Cc1ccccc1)C(N)=O (Ac-KKRYSR[Aib]FLL[Aib]F-NH2)
helicity (circular dichroism): 2%

CC(=O)N[C@@H](CCCCN)C(=O)N[C@@H](CCCCN)C(=O)N[C@@H](CCCNC(=N)N)C(=O)N[C@@H](Cc1ccc(O)cc1)C(=O)N[C@@H](CO)C(=O)N[C@@H](CCCNC(=N)N)C(=O)N[C@@]1(C)CCCC=CCCC[C@@](C)(C(N)=O)NC(=O)[C@H](CC(C)C)NC(=O)[C@H](CC(C)C)NC(=O)[C@H](Cc2ccccc2)NC1=O (Ac-KKRYSR[S5]FLL[S5]-NH2; staple 7-11)
helicity (circular dichroism): 72%

CC(=O)N[C@@H](CCCCN)C(=O)N[C@@H](CCCCN)C(=O)N[C@@H](CCCNC(=N)N)C(=O)N[C@@H](Cc1ccc(O)cc1)C(=O)N[C@@H](CO)C(=O)N[C@@H](CCCNC(=N)N)C(=O)N[C@@]1(C)CCCC=CCCC[C@@](C)(C(=O)N[C@@H](Cc2ccccc2)C(N)=O)NC(=O)[C@H](CC(C)C)NC(=O)[C@H](CC(C)C)NC(=O)[C@H](Cc2ccccc2)NC1=O (Ac-KKRYSR[S5]FLL[S5]F-NH2; staple 7-11)
helicity (circular dichroism): 24%

CC(=O)N[C@@H](CCCCN)C(=O)N[C@@H](CCCCN)C(=O)N[C@@H](CCCNC(=N)N)C(=O)N[C@@H](Cc1ccc(O)cc1)C(=O)N[C@@H](CO)C(=O)N[C@@H](CCCNC(=N)N)C(=O)N[C@@]1(C)CCCC=CCCC[C@@](C)(C(=O)N[C@@H](Cc2ccccc2)C(N)=O)NC(=O)[C@H](CC(C)C)NC(=O)[C@H](CC(C)C)NC(=O)[C@H](C)NC1=O (relative stereo) [sTIP-01^F8A, KKRYSR*ALL*F]
helicity (circular dichroism): 80%
affinity / binding to eIF4E (in words) (eIF4E): improved Kd values as compared to sTIP-01

CC[C@H](NC(=O)[C@]1(C)CCCC=CCCC[C@](C)(NC(=O)[C@H](CCCNC(=N)N)NC(=O)[C@H](CO)NC(=O)[C@H](Cc2ccc(O)cc2)NC(=O)[C@H](CCCNC(=N)N)NC(=O)[C@H](CCCCN)NC(=O)[C@H](CCCCN)NC(C)=O)C(=O)N[C@@H](Cc2ccccc2)C(=O)N[C@@H](CC(C)C)C(=O)N[C@@H](CC(C)C)C(=O)N1)C(N)=O (relative stereo) [sTIP-01^F12&, KKRYSR*FLL*&]
helicity (circular dichroism): 44%
affinity / binding to eIF4E (in words) (eIF4E): improved Kd values as compared to sTIP-01
Helicity (%) [1]: 44%

CC(=O)N[C@@H](CCCCN)C(=O)N[C@@H](CCCCN)C(=O)N[C@@H](CCCNC(=N)N)C(=O)N[C@@H](Cc1ccc(O)cc1)C(=O)N[C@@H](CO)C(=O)N[C@@H](CCCNC(=N)N)C(=O)N[C@@]1(C)CCCC=CCCC[C@@](C)(C(=O)N[C@@H](CC(C)C)C(N)=O)NC(=O)[C@H](CC(C)C)NC(=O)[C@H](CC(C)C)NC(=O)[C@H](CCC(N)=O)NC1=O (relative stereo) [sTIP-04, KKRYSR*QLL*L]
Helicity (%) [1]: 63%

CC(=O)N[C@@H](CCCCN)C(=O)N[C@@H](CCCCN)C(=O)N[C@@H](CCCNC(=N)N)C(=O)N[C@@H](Cc1ccc(O)cc1)C(=O)N[C@@H](CO)C(=O)N[C@@H](CCCNC(=N)N)C(=O)NC(C)(C)C(=O)N[C@@H](C)C(=O)N[C@@H](CC(C)C)C(=O)N[C@@H](CC(C)C)C(=O)NC(C)(C)C(=O)N[C@@H](Cc1ccccc1)C(N)=O [TIP-01^F8A, KKRYSRXALLXF] (Ac-KKRYSR[Aib]ALL[Aib]F-NH2)
helicity (circular dichroism): 10%
Helicity (%) [1]: 10%

CC[C@H](NC(=O)C(C)(C)NC(=O)[C@H](CC(C)C)NC(=O)[C@H](CC(C)C)NC(=O)[C@H](Cc1ccccc1)NC(=O)C(C)(C)NC(=O)[C@H](CCCNC(=N)N)NC(=O)[C@H](CO)NC(=O)[C@H](Cc1ccc(O)cc1)NC(=O)[C@H](CCCNC(=N)N)NC(=O)[C@H](CCCCN)NC(=O)[C@H](CCCCN)NC(C)=O)C(N)=O [TIP-01^F12&, KKRYSRXFLLX&] (Ac-KKRYSR[Aib]FLL[Aib][Abu]-NH2)
helicity (circular dichroism): 11%
Helicity (%) [1]: 11%

CC(=O)N[C@@H](CCCCN)C(=O)N[C@@H](CCCCN)C(=O)N[C@@H](CCCNC(=N)N)C(=O)N[C@@H](Cc1ccc(O)cc1)C(=O)N[C@@H](CO)C(=O)N[C@@H](CCCNC(=N)N)C(=O)NC(C)(C)C(=O)N[C@@H](CCC(N)=O)C(=O)N[C@@H](CC(C)C)C(=O)N[C@@H](CC(C)C)C(=O)NC(C)(C)C(=O)N[C@@H](CC(C)C)C(N)=O [TIP-04, KKRYSRXQLLXL]
helicity (circular dichroism): 4%
Helicity (%) [1]: 4%

CC(=O)N[C@@H](CCCCN)C(=O)N[C@@H](CCCCN)C(=O)N[C@@H](CCCNC(=N)N)C(=O)N[C@@H](Cc1ccc(O)cc1)C(=O)N[C@@H](CO)C(=O)N[C@@H](CCCNC(=N)N)C(=O)N[C@@H](CCC(=O)O)C(=O)N[C@@]1(C)CCCC=CCCC[C@@](C)(C(N)=O)NC(=O)CNC(=O)[C@H](CC(C)C)NC(=O)[C@H](CC(C)C)NC1=O [sTIP-02, KKRYSRE*LLG*]
helicity (circular dichroism): 18%
Kd (in words) (eIF4E): nanomolar range
affinity / binding to eIF4E (in words) (eIF4E): no improvement in binding over eIF4G^D5S

Ac-KKRYSREFLLGF-NH2 [eIF4G^D5S, reference compound]
helicity (circular dichroism): 0%
Helicity (%) [1]: 0%

B1: TIP-04 (peptide)
peptide: Ac-KKRYSR[Aib]QLL[Aib]L-NH2
notes: Printed KKRYSRXQLLXL, X = AIB; also called AIB derivative of sTIP-04
Kd [2]: 22 nM
Kd [3]: 60 nM

B2: TIP-01^F12& (peptide)
peptide: Ac-KKRYSR[Aib]FLL[Aib][Abu]-NH2
SMILES: CC[C@H](NC(=O)C(C)(C)NC(=O)[C@H](CC(C)C)NC(=O)[C@H](CC(C)C)NC(=O)[C@H](Cc1ccccc1)NC(=O)C(C)(C)NC(=O)[C@H](CCCNC(=N)N)NC(=O)[C@H](CO)NC(=O)[C@H](Cc1ccc(O)cc1)NC(=O)[C@H](CCCNC(=N)N)NC(=O)[C@H](CCCCN)NC(=O)[C@H](CCCCN)NC(C)=O)C(N)=O
notes: Printed KKRYSRXFLLX&
Kd [2]: 111 nM
Kd [3]: 133 nM

B3: TIP-01^F8A (peptide)
peptide: Ac-KKRYSR[Aib]ALL[Aib]F-NH2
SMILES: CC(=O)N[C@@H](CCCCN)C(=O)N[C@@H](CCCCN)C(=O)N[C@@H](CCCNC(=N)N)C(=O)N[C@@H](Cc1ccc(O)cc1)C(=O)N[C@@H](CO)C(=O)N[C@@H](CCCNC(=N)N)C(=O)NC(C)(C)C(=O)N[C@@H](C)C(=O)N[C@@H](CC(C)C)C(=O)N[C@@H](CC(C)C)C(=O)NC(C)(C)C(=O)N[C@@H](Cc1ccccc1)C(N)=O
notes: Printed KKRYSRXALLXF, X = AIB
Kd [2]: 117 nM
Kd [3]: 156 nM

B4: eIF4G^D5S (peptide)
peptide: Ac-KKRYSREFLLGF-NH2
notes: also called eIF4G1^D5S; linear template peptide
Kd [2]: 99.9 nM
Kd [3]: 195 nM

From patent US20160046672A1, “STAPLING eIF4E INTERACTING PEPTIDES” (AGENCY FOR SCIENCE, TECHNOLOGY AND RESEARCH, priority 2013, published 2016)
